# Measured values from the supplement of paper PMC9876800.
# Tested on: peptide library, one residue held at a place counted from the S/T acceptor
# Assay: relative phosphorylation of the sub-library (ratio to the mean residue at this position); human; higher = residue favoured
# Conditions: E fixed; at +4
# How it was run: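 Purified recombinant kinases (human or orthologue constructs) were incubated in 384-well plates with biotinylated degenerate peptide sub-libraries, each fixing one residue at one position around a central Ser/Thr. Peptides were at 50 μM, with 50 μM ATP spiked with γ-32P-ATP, for 90 min under kinase-specific conditions. Spots on streptavidin membranes were phosphorimaged and quantified by densitometry. Relative sub-library phosphorylation is a ratio to the mean residue at that position.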
# CSNK2A1, construct: Full length, sequence (P68400 whole entry, looked up): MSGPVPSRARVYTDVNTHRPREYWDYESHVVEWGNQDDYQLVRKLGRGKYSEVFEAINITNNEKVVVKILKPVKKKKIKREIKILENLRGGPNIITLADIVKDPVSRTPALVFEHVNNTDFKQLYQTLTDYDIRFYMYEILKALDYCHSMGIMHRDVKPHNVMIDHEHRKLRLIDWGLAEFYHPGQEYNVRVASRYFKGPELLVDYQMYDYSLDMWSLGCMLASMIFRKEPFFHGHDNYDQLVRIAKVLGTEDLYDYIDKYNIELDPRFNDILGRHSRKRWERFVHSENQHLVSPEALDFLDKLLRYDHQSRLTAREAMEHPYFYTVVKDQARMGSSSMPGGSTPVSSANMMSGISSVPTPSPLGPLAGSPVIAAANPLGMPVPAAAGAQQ
# PAK2, construct: aa3-end, sequence (Q13177 3-524, looked up): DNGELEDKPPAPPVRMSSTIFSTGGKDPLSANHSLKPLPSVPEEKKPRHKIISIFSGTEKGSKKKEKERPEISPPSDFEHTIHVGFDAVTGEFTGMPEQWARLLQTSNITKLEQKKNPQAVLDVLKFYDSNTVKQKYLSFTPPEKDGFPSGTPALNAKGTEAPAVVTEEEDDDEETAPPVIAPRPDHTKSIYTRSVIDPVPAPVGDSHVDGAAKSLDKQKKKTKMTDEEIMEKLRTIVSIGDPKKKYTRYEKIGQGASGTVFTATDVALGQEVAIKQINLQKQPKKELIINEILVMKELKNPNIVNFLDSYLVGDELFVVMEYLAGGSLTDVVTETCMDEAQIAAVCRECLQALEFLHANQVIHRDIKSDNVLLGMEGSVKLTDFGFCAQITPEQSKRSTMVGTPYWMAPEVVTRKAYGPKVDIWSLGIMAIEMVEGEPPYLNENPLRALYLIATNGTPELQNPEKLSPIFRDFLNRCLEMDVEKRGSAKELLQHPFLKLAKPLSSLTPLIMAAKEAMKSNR
# NEK1, construct: aa1-505, sequence (Q96PY6 1-505, looked up): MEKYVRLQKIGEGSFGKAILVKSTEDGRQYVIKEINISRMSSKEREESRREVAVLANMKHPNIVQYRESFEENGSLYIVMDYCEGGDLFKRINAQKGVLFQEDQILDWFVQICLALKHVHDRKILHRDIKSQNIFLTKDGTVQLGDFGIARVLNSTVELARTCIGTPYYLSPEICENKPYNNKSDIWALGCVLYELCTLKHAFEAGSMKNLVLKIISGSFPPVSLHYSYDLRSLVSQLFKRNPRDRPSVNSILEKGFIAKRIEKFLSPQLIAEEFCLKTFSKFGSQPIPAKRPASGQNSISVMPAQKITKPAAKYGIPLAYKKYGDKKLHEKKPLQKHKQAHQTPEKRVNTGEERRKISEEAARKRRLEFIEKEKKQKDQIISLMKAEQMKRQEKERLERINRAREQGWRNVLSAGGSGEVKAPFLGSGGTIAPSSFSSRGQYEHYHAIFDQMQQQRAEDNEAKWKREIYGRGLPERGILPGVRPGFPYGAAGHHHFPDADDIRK
# STK10, construct: aa18-317, sequence (O94804 18-317, looked up): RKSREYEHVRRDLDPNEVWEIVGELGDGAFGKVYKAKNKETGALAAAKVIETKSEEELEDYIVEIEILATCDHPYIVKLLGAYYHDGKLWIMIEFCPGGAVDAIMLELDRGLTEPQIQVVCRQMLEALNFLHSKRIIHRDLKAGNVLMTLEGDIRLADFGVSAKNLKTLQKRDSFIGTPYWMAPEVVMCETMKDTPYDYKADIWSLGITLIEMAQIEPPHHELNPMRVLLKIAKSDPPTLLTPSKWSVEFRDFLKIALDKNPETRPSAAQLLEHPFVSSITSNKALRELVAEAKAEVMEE
row,Substance,relative phosphorylation
1,"PAK2, construct: aa3-end (from UniProt Q13177)",0.988
2,"PRKCG, construct: Full length (from UniProt P05129)",0.508
3,"STK10, construct: aa18-317 (from UniProt O94804)",0.563
4,"STK39, construct: Full length (from UniProt Q9UEW8)",0.651

# Same assay, conditions: E fixed; at -1
row,Substance,relative phosphorylation
1,"CSNK2A1, construct: Full length (from UniProt P68400)",2.33
2,"NEK1, construct: aa1-505 (from UniProt Q96PY6)",0.713
3,"PAK2, construct: aa3-end (from UniProt Q13177)",0.522
4,"PRKCG, construct: Full length (from UniProt P05129)",0.477
5,"STK10, construct: aa18-317 (from UniProt O94804)",0.304
6,"STK39, construct: Full length (from UniProt Q9UEW8)",1.05

# Same assay, conditions: E fixed; at -2
row,Substance,relative phosphorylation
1,"CSNK2A1, construct: Full length (from UniProt P68400)",1.37
2,"NEK1, construct: aa1-505 (from UniProt Q96PY6)",0.706
3,"PAK2, construct: aa3-end (from UniProt Q13177)",0.222
4,"PRKCG, construct: Full length (from UniProt P05129)",0.388
5,"STK10, construct: aa18-317 (from UniProt O94804)",0.216
6,"STK39, construct: Full length (from UniProt Q9UEW8)",0.826

# Same assay, conditions: E fixed; at -3
row,Substance,relative phosphorylation
1,"CSNK2A1, construct: Full length (from UniProt P68400)",1.53
2,"NEK1, construct: aa1-505 (from UniProt Q96PY6)",0.373
3,"PAK2, construct: aa3-end (from UniProt Q13177)",0.469
4,"PRKCG, construct: Full length (from UniProt P05129)",0.415
5,"STK10, construct: aa18-317 (from UniProt O94804)",0.598
6,"STK39, construct: Full length (from UniProt Q9UEW8)",0.895

# Same assay, conditions: E fixed; at -4
row,Substance,relative phosphorylation
1,"CSNK2A1, construct: Full length (from UniProt P68400)",1.56
2,"NEK1, construct: aa1-505 (from UniProt Q96PY6)",0.785
3,"PAK2, construct: aa3-end (from UniProt Q13177)",0.891
4,"PRKCG, construct: Full length (from UniProt P05129)",0.708
5,"STK10, construct: aa18-317 (from UniProt O94804)",0.776
6,"STK39, construct: Full length (from UniProt Q9UEW8)",1.36

# Same assay, conditions: E fixed; at -5
row,Substance,relative phosphorylation
1,"CSNK2A1, construct: Full length (from UniProt P68400)",1.2
2,"NEK1, construct: aa1-505 (from UniProt Q96PY6)",0.678
3,"PAK2, construct: aa3-end (from UniProt Q13177)",0.602
4,"PRKCG, construct: Full length (from UniProt P05129)",0.554
5,"STK10, construct: aa18-317 (from UniProt O94804)",0.605
6,"STK39, construct: Full length (from UniProt Q9UEW8)",1.07

# Same assay, conditions: F fixed; at +1
row,Substance,relative phosphorylation
1,"CSNK2A1, construct: Full length (from UniProt P68400)",0.24
2,"NEK1, construct: aa1-505 (from UniProt Q96PY6)",1.36
3,"PAK2, construct: aa3-end (from UniProt Q13177)",1.18
4,"PRKCG, construct: Full length (from UniProt P05129)",1.46
5,"STK10, construct: aa18-317 (from UniProt O94804)",1.23
6,"STK39, construct: Full length (from UniProt Q9UEW8)",1.17

# Same assay, conditions: F fixed; at +2
row,Substance,relative phosphorylation
1,"CSNK2A1, construct: Full length (from UniProt P68400)",0.739
2,"NEK1, construct: aa1-505 (from UniProt Q96PY6)",0.744
3,"PAK2, construct: aa3-end (from UniProt Q13177)",1.76
4,"PRKCG, construct: Full length (from UniProt P05129)",0.545
5,"STK10, construct: aa18-317 (from UniProt O94804)",0.634
6,"STK39, construct: Full length (from UniProt Q9UEW8)",0.908

# Same assay, conditions: F fixed; at +3
row,Substance,relative phosphorylation
1,"CSNK2A1, construct: Full length (from UniProt P68400)",0.307
2,"NEK1, construct: aa1-505 (from UniProt Q96PY6)",1.2
3,"PAK2, construct: aa3-end (from UniProt Q13177)",1.77
4,"PRKCG, construct: Full length (from UniProt P05129)",0.842
5,"STK10, construct: aa18-317 (from UniProt O94804)",0.846
6,"STK39, construct: Full length (from UniProt Q9UEW8)",0.901

# Same assay, conditions: F fixed; at +4
row,Substance,relative phosphorylation
1,"CSNK2A1, construct: Full length (from UniProt P68400)",0.878
2,"NEK1, construct: aa1-505 (from UniProt Q96PY6)",0.804
3,"PAK2, construct: aa3-end (from UniProt Q13177)",0.95
4,"PRKCG, construct: Full length (from UniProt P05129)",0.662
5,"STK10, construct: aa18-317 (from UniProt O94804)",0.816
6,"STK39, construct: Full length (from UniProt Q9UEW8)",0.899

# Same assay, conditions: F fixed; at -1
row,Substance,relative phosphorylation
1,"CSNK2A1, construct: Full length (from UniProt P68400)",0.886
2,"NEK1, construct: aa1-505 (from UniProt Q96PY6)",0.891
3,"PAK2, construct: aa3-end (from UniProt Q13177)",0.956
4,"PRKCG, construct: Full length (from UniProt P05129)",0.479
5,"STK10, construct: aa18-317 (from UniProt O94804)",0.911
6,"STK39, construct: Full length (from UniProt Q9UEW8)",0.908

# Same assay, conditions: F fixed; at -2
row,Substance,relative phosphorylation
1,"CSNK2A1, construct: Full length (from UniProt P68400)",1.04
2,"NEK1, construct: aa1-505 (from UniProt Q96PY6)",0.98
3,"PAK2, construct: aa3-end (from UniProt Q13177)",0.464
4,"PRKCG, construct: Full length (from UniProt P05129)",0.72
5,"STK10, construct: aa18-317 (from UniProt O94804)",2.13
6,"STK39, construct: Full length (from UniProt Q9UEW8)",1.05

# Same assay, conditions: F fixed; at -3
row,Substance,relative phosphorylation
1,"CSNK2A1, construct: Full length (from UniProt P68400)",0.97
2,"NEK1, construct: aa1-505 (from UniProt Q96PY6)",1.61
3,"PAK2, construct: aa3-end (from UniProt Q13177)",0.699
4,"PRKCG, construct: Full length (from UniProt P05129)",0.771
5,"STK10, construct: aa18-317 (from UniProt O94804)",1.02
6,"STK39, construct: Full length (from UniProt Q9UEW8)",0.783

# Same assay, conditions: F fixed; at -4
row,Substance,relative phosphorylation
1,"CSNK2A1, construct: Full length (from UniProt P68400)",0.88
2,"NEK1, construct: aa1-505 (from UniProt Q96PY6)",1.06
3,"PAK2, construct: aa3-end (from UniProt Q13177)",0.729
4,"PRKCG, construct: Full length (from UniProt P05129)",0.818
5,"STK10, construct: aa18-317 (from UniProt O94804)",0.85
6,"STK39, construct: Full length (from UniProt Q9UEW8)",0.88

# Same assay, conditions: F fixed; at -5
row,Substance,relative phosphorylation
1,"CSNK2A1, construct: Full length (from UniProt P68400)",0.976
2,"NEK1, construct: aa1-505 (from UniProt Q96PY6)",1.15
3,"PAK2, construct: aa3-end (from UniProt Q13177)",0.803
4,"PRKCG, construct: Full length (from UniProt P05129)",1.21
5,"STK10, construct: aa18-317 (from UniProt O94804)",0.846
6,"STK39, construct: Full length (from UniProt Q9UEW8)",0.983

# Same assay, conditions: G fixed; at +1
row,Substance,relative phosphorylation
1,"CSNK2A1, construct: Full length (from UniProt P68400)",0.561
2,"NEK1, construct: aa1-505 (from UniProt Q96PY6)",1.11
3,"PAK2, construct: aa3-end (from UniProt Q13177)",0.916
4,"PRKCG, construct: Full length (from UniProt P05129)",0.516
5,"STK10, construct: aa18-317 (from UniProt O94804)",0.564
6,"STK39, construct: Full length (from UniProt Q9UEW8)",0.24

# Same assay, conditions: G fixed; at +2
row,Substance,relative phosphorylation
1,"CSNK2A1, construct: Full length (from UniProt P68400)",0.782
2,"NEK1, construct: aa1-505 (from UniProt Q96PY6)",0.85
3,"PAK2, construct: aa3-end (from UniProt Q13177)",0.643
4,"PRKCG, construct: Full length (from UniProt P05129)",0.337
5,"STK10, construct: aa18-317 (from UniProt O94804)",1.09
6,"STK39, construct: Full length (from UniProt Q9UEW8)",0.824

# Same assay, conditions: G fixed; at +3
row,Substance,relative phosphorylation
1,"CSNK2A1, construct: Full length (from UniProt P68400)",0.533
2,"NEK1, construct: aa1-505 (from UniProt Q96PY6)",1.05
3,"PAK2, construct: aa3-end (from UniProt Q13177)",0.868
4,"PRKCG, construct: Full length (from UniProt P05129)",1.06
5,"STK10, construct: aa18-317 (from UniProt O94804)",1.09
6,"STK39, construct: Full length (from UniProt Q9UEW8)",1.06

# Same assay, conditions: G fixed; at +4
row,Substance,relative phosphorylation
1,"CSNK2A1, construct: Full length (from UniProt P68400)",1.06
2,"NEK1, construct: aa1-505 (from UniProt Q96PY6)",1.18
3,"PAK2, construct: aa3-end (from UniProt Q13177)",1.01
4,"PRKCG, construct: Full length (from UniProt P05129)",1.27
5,"STK10, construct: aa18-317 (from UniProt O94804)",1.21
6,"STK39, construct: Full length (from UniProt Q9UEW8)",1.27

# Same assay, conditions: G fixed; at -1
row,Substance,relative phosphorylation
1,"CSNK2A1, construct: Full length (from UniProt P68400)",0.687
2,"NEK1, construct: aa1-505 (from UniProt Q96PY6)",1.3
3,"PAK2, construct: aa3-end (from UniProt Q13177)",0.668
4,"PRKCG, construct: Full length (from UniProt P05129)",1.87
5,"STK10, construct: aa18-317 (from UniProt O94804)",0.703
6,"STK39, construct: Full length (from UniProt Q9UEW8)",0.606

# Same assay, conditions: G fixed; at -2
row,Substance,relative phosphorylation
1,"CSNK2A1, construct: Full length (from UniProt P68400)",0.891
2,"NEK1, construct: aa1-505 (from UniProt Q96PY6)",1.2
3,"PAK2, construct: aa3-end (from UniProt Q13177)",0.479
4,"PRKCG, construct: Full length (from UniProt P05129)",1.19
5,"STK10, construct: aa18-317 (from UniProt O94804)",0.543
6,"STK39, construct: Full length (from UniProt Q9UEW8)",0.888

# Same assay, conditions: G fixed; at -3
row,Substance,relative phosphorylation
1,"CSNK2A1, construct: Full length (from UniProt P68400)",1.65
2,"NEK1, construct: aa1-505 (from UniProt Q96PY6)",1.41
3,"PAK2, construct: aa3-end (from UniProt Q13177)",0.891
4,"PRKCG, construct: Full length (from UniProt P05129)",1.06
